Measured values: patent US20230263916A1 (NANOMAB TECHNOLOGY, published 2023)
Positions count from the first letter of the chain named.

B1: Nanobody No. 31 (VHH)
VHH: QVQLQESGGGSVQAGETLRLSCTASGFTFNDSNMGWYRQAPGHECELVSTISSDGSTYYADSVKGRFTISQNNARNTVYLQMNSLKPEDTAVYYCAGDWGYELGICTSLDYWGQGTQVTVSS
notes: also called 31; not shown: tags (HA, His) implied by anti-HA detection and nickel column
B2: Nanobody No. 18 (VHH)
VHH: QVQLQESGGGSVQAGQTLRLSCTASGFTFDDSDMAWYRQAPGNECELVSKMRSDGSTYYADSVKGRFTISQDNAKNTVYLQMNSLKPEDTAVYYCAEDLPYGLGTCTSLDYWGRGTQVTVSS
notes: also called 18; not shown: tags (HA, His) implied by anti-HA detection and nickel column
B3: Nanobody No. 39 (VHH)
VHH: QVQLQESGGGSVQAGGSLRLSCAASGYTYTGYCMGWFRQAPGKEREGVATIDSDGDTSYADSVKGRFTISKDNAKNTLYLQMNSLKPEDTAMYYCAADFRRWHLCSSSFREDGMDYWGKGTQVTVSS
notes: also called 39; not shown: tags (HA, His) implied by anti-HA detection and nickel column
B4: Nanobody No. 40 (VHH)
VHH: B3 VHH with G16E, S17T, P41T, S58T, A74G, R110Q, D112Y, G113D
notes: also called 40; not shown: tags (HA, His) implied by anti-HA detection and nickel column
B5: Nanobody No. 29 (VHH)
VHH: QVQLQESGGGSVQAGGSLRLSCTASGFTFDDLDMRWYRQAPGNECELVSIINSDGRTYYADSVKGRFAISQNNAKNTVYLQMNSLKPEDTAVYYCAADQHRYGLGTCEALDYWGRGTQVTVSS
notes: also called 29; not shown: tags (HA, His) implied by anti-HA detection and nickel column
B6: Nanobody No. 4 (VHH)
VHH: QVQLQESGGGLVQPGGSLRLSCTASRFTFDDSDMAWYRQAPGNECELVSIISSDGSTYYADSVKGRFTISLDNTKSTVYLQMNSLKPEDTAVYYCAAHPLHYELGTCAALDYWGRGTQVTVSS
notes: not shown: tags (HA, His) implied by anti-HA detection and nickel column
B7: Nanobody No. 5 (VHH)
VHH: QVQLQESGGGSVQAGGSLRLSCTVSGFSFDDSDMGWYRRAPGNECELVSGISRDGSTYYADSVKGRFTISQDNAKNWVYLQMNSLKPEDTAVYYCAAATYSDYVCDYWTQGTQVTVSS
notes: as for B6
B8: Nanobody No. 3 (VHH)
VHH: QVQLQESGGGSVQAGGSLRLSCTASGFTFDDSDVRWYRQAPGRECKLVSSISSDRSAYYEDSVKGRFTISQDNAKNTVYLQMNSLKPEDTAVYYCAAHPLHYELGTCAALDYWGRGTQVTVSS
notes: as for B6
B9: Nanobody No. 27 (VHH)
VHH: QVQLQESGGGSVQAGETLRLSCTASGFTFDDSDMGWYRQAPGNECELVSTISSDGSTYYADSVKGRFTISQDNAKNTVYLQMNSLKPEDTAVYYCAADHGGGYELGTCAALDYWGRGTQVTVSS
notes: also called 27; not shown: tags (HA, His) implied by anti-HA detection and nickel column
B10: Nanobody No. 38 (VHH)
VHH: QVQLQESGGGSVQAGGSLRLSCAASGFTYTGYCMGWFRQAPGKEREGVATVDSDGDTSYADSVKGRFTISKDNAKNTLYLQMNSLKPEDTAMYYCAADFSRWHLCSTSLATLGYWGQGTQVTVSS
notes: also called 38; not shown: tags (HA, His) implied by anti-HA detection and nickel column
B11: Nanobody No. 6 (VHH)
VHH: QVQLQESGGGSVQAGETLRLSCTASGFTFDDSDMGWYRQAPGNECELVSHISSDGSTYYADSVKGRFTISQDNAKNTVFLQMNSLKPEDTAVYYCAADKDARGYELGTCESLDYWGRGTQVTVSS
notes: as for B6
B12: Nanobody No. 7 (VHH)
VHH: B11 VHH with H50T, F79Y
notes: as for B6
B13: Nanobody No. 12 (VHH)
VHH: QVQLQESGGGSVQAGETLRLSCTASGFTFDDSDMGWYRQAPGNECELVSTISSDGSTYYADSVKGRFTISQDNAKNTVYLQMNSLKPEDTAVYYCAADGHKYELGTCAALDYWGRGTQVTVSS
notes: also called 12; not shown: tags (HA, His) implied by anti-HA detection and nickel column
B14: Nanobody No. 8 (VHH)
VHH: B13 VHH with D31E, D33V, A60S, D61N, G99D, K101T, A108E, D111N
notes: as for B6
B15: Nanobody No. 20 (VHH)
VHH: QVQLQESGGGSVQAGGSLRLSCTASGFTFDDSVMGWFRKAPGNECELVSTISSDGSTYYADSVKGRFTISQDNAKNTVYLQMNNLKPEDTAVYYCAAINSGYELGTCESLDYWGRGTQVTVSS
notes: also called 20; not shown: tags (HA, His) implied by anti-HA detection and nickel column
B16: Nanobody No. 2 (VHH)
VHH: B13 VHH with T77A, D98H, G99P, H100L, K101H
notes: as for B6
B17: Nanobody No. 14 (VHH)
VHH: B13 VHH with T50R, D98L, G99E, H100W, K101E, A108E, R115Q
notes: also called 14; not shown: tags (HA, His) implied by anti-HA detection and nickel column
B18: Nanobody No. 11 (VHH)
VHH: B13 VHH with T50H, D54G, H100S, K101N
notes: also called 11; not shown: tags (HA, His) implied by anti-HA detection and nickel column
B19: Nanobody No. 1 (VHH)
VHH: B13 VHH with D98H, G99P, H100L, K101H
notes: as for B6
B20: Nanobody No. 28 (VHH)
VHH: QVQLQESGGGLVQPGGSLRLSCAASGFTFGDSGMGWYRQAPGNECELVSSVSSDGSTYYADSVKGRFTISQDNAKNTVYLRMNSLKPEDTAVYYCAADDHKYELGTCEALDYWGRGTQVTVSS
notes: also called 28; not shown: tags (HA, His) implied by anti-HA detection and nickel column
B21: Nanobody No. 16 (VHH)
VHH: B13 VHH with E16G, T17S, G35V, T50R, D98L, G99E, H100W, K101E, A108E, R115Q
notes: also called 16; not shown: tags (HA, His) implied by anti-HA detection and nickel column
B22: Nanobody No. 15 (VHH)
VHH: QVQLQESGGGSVQAGGSLRLSCTASRFTFDDSDMGWYRQAPGNECELVSTISSDGATYYANSVKGRFTISQDNAANTVYLQMNSLKPEDTAVYYCAALEWEYELGTCEALDYWGQGTQVTVSS
notes: also called 15; not shown: tags (HA, His) implied by anti-HA detection and nickel column
B23: Nanobody No. 30 (VHH)
VHH: B5 VHH with G16E, S17T, L32S, R35G, I50T, N52S
notes: also called 30; not shown: tags (HA, His) implied by anti-HA detection and nickel column
B24: Nanobody No. 33 (VHH)
VHH: QVQLQESGGGSVQAGGSLRLSCTASGFTFDDVDMGWYRQAPGNECELVSTISSDGSTYYADSVKGRFTISQDNAKNTVYLQMNSLKPEDTAMYYCAAARYSDYEGMCGYWSQGTQVTVSS
notes: also called 33; not shown: tags (HA, His) implied by anti-HA detection and nickel column
B25: Nanobody No. 36 (VHH)
VHH: B24 VHH with G16E, T23R, A24T, T28S
notes: also called 36; not shown: tags (HA, His) implied by anti-HA detection and nickel column
B26: Nanobody No. 34 (VHH)
VHH: B24 VHH with A24V
notes: also called 34; not shown: tags (HA, His) implied by anti-HA detection and nickel column
B27: Nanobody No. 32 (VHH)
VHH: B24 VHH with P41S
notes: also called 32; not shown: tags (HA, His) implied by anti-HA detection and nickel column
B28: Nanobody No. 37 (VHH)
VHH: B24 VHH with G16E, S17T, A24V, V32A, E44Q, S56I, I69V
notes: also called 37; not shown: tags (HA, His) implied by anti-HA detection and nickel column
B29: Nanobody No. 35 (VHH)
VHH: B24 VHH with S11L, A14P, T23A
notes: also called 35; not shown: tags (HA, His) implied by anti-HA detection and nickel column
B30: Nanobody No. 19 (VHH)
VHH: QVQLQESGGGSVQAGGSLRLSCTASGFTFDDSDSDMGWYRQAPGNECELVSSISSDGSTYYADSVKGRFTISQDNAKNTVYLQMNSLKPEDTAVYYCAAINSGYELGTCESLDYWGRGTQVTVSS
notes: also called 19; not shown: tags (HA, His) implied by anti-HA detection and nickel column
B31: Nanobody No. 24 (VHH)
VHH: B30 VHH with G16E, S17T
notes: also called 24; not shown: tags (HA, His) implied by anti-HA detection and nickel column
B32: Nanobody No. 25 (VHH)
VHH: B30 VHH with G16E, S17T, L87P
notes: also called 25; not shown: tags (HA, His) implied by anti-HA detection and nickel column
B33: Nanobody No. 21 (VHH)
VHH: B30 VHH with S11L, A14P, G15R
notes: also called 21; not shown: tags (HA, His) implied by anti-HA detection and nickel column

target: T1, human Her2 (ECD)-Fc protein (human, UniProt P04626 23-652); assay: PE-ELISA, crude extract on antigen-coated plate
T1 construct: extracellular domain; Made in HEK293F cells; also called hHer2 (ECD)-Fc antigen; Her2 (ECD)-Fc antigen; not shown: TEV restriction site at the C-terminal of hHer2 (ECD); IgG1 Fc of the pFUSE-IgG1 vector
Description: (§1) (1) 10 μg Her2 (ECD)-Fc antigen (10 μg Fc in NaHCO₃ as control) dissolved in 100 mM NaHCO₃ (pH 8.2) was coupled to a NUNC plate then incubated at 4° C. overnight.
(§2) (5) The unbound antibody was washed off with PBST.
(§3) (6) When the OD value of the sample was over 3 times of the OD value of the control sample (Ratio+/−>3), the tested sample was determined to be a positive clone. […] Then all the positive clones were transferred to LA medium for plasmid extraction and sequencing.

| A405+ [A405] | Binder |
| --- | --- |
| 1.65 | B1 |
| 1.59 | B2 |
| 1.86 | B3 |
| 1.57 | B4 |
| 1.48 | B5 |
| 1.97 | B6 |
| 1.1 | B7 |
| 1.31 | B8 |
| 1.66 | B9 |
| 2.14 | B10 |
| 2.14 | B11 |
| 2.24 | B12 |
| 2.18 | B13 |
| 2.56 | B14 |
| 1.47 | B15 |
| 1.53 | B16 |
| 1.96 | B17 |

| A405+ [A405] | Binder |
| --- | --- |
| 1.88 | B18 |
| 1.72 | B19 |
| 1.86 | B20 |
| 1.79 | B21 |
| 2.27 | B22 |
| 2.31 | B23 |
| 2.05 | B24 |
| 2.22 | B25 |
| 2.26 | B26 |
| 2.36 | B27 |
| 2.1 | B28 |
| 1.99 | B29 |
| 1.77 | B30 |
| 2.68 | B31 |
| 1.97 | B32 |
| 2.09 | B33 |

target: T1, human Her2 (ECD)-Fc protein; assay: PE-ELISA, A405 of antigen well over control well
Description: as §1, §2, §3

| Ratio(+/-) | Binder |
| --- | --- |
| 21.4 | B1 |
| 19.2 | B2 |
| 17.8 | B3 |
| 19.1 | B4 |
| 18.8 | B5 |
| 21.2 | B6 |
| 12.7 | B7 |
| 13 | B8 |
| 20.5 | B9 |
| 21.8 | B10 |
| 23.4 | B11 |
| 27.4 | B12 |
| 25.6 | B13 |
| 28 | B14 |
| 10.2 | B15 |
| 19.3 | B16 |
| 24.4 | B17 |

| Ratio(+/-) | Binder |
| --- | --- |
| 25.5 | B18 |
| 22.3 | B19 |
| 23.3 | B20 |
| 23.5 | B21 |
| 26.1 | B22 |
| 23.9 | B23 |
| 21.3 | B24 |
| 21.6 | B25 |
| 20 | B26 |
| 25.3 | B27 |
| 19.6 | B28 |
| 21 | B29 |
| 19.6 | B30 |
| 23.7 | B31 |
| 22.4 | B32 |
| 20.3 | B33 |
